From PMC4186855, “A Soybean C2H2-Type Zinc Finger Gene GmZF1 Enhanced Cold Tolerance in Transgenic Arabidopsis” come the findings set out here.

The target in the data set is T1, GmZF1 (GST fusion) (Glycine max (soybean), UniProt Q4FH86 1-172).
T1 sequence: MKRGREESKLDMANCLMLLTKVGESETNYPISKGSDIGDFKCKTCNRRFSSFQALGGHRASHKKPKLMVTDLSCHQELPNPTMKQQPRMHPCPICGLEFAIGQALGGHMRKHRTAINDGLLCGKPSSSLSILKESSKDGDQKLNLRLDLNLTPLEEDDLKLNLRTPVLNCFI
In words: EMSA; 20 µL binding buffer with 32P-labelled probe, glycerine and 0.2 µg purified protein; 6% polyacrylamide gel in TBE (printed as 0.53, probably 0.5x); salt, pH and temperature not stated. The following applies: protein: recombinant; tags: GST (pGEX-4T-1); label: 32P.

B1: E1 (wild-type EP1S, 4 copies) (dsDNA)
DNA 1: TTGACAGTGTCACTTGACAGTGTCACTTGACAGTGTCACTTGACAGTGTCAC
DNA 2: GTGACACTGTCAAGTGACACTGTCAAGTGACACTGTCAAGTGACACTGTCAA
Take B1: the binding result is “binds”.

B2: E2 (mutant EP1S, base substitution) (dsDNA)
DNA 1: TTCAGAGTGTCACTTCAGAGTGTCACTTCAGAGTGTCACTTCAGAGTGTCAC
DNA 2: GTGACACTCTGAAGTGACACTCTGAAGTGACACTCTGAAGTGACACTCTGAA
Regarding B2, the binding result is given as “binds”.
